Reference: publication PMC3017539, “Crystal Structure of Escherichia coli CusC, the Outer Membrane Component of a Heavy Metal Efflux Pump” (PLoS ONE, 2011)

Molecular target: the molecule itself
Test: SEC; gel filtration (Superdex-200) in 10 mM Na-acetate/50 mM NaCl/10% glycerol/0.05% DDM pH 5; oligomer judged from the elution position

B1: CusC, the outer membrane component of the Cus heavy metal efflux pump (natural protein, E. coli, UniProt P77211 18-457, looked up)
chain: CSLAPDYQRPAMPVPQQFSLSQNGLVNAADNYQNAGWRTFFVDNQVKTLISEALVNNRDLRMATLKVQEARAQYRLTDADRYPQLNGEGSGSWSGNLKGNTATTREFSTGLNASFDLDFFGRLKNMSEAERQNYLATEEAQRAVHILLVSNVAQSYFNQQLAYAQLQIAEETLRNYQQSYAFVEKQLLTGSSNVLALEQARGVIESTRSDIAKRQGELAQANNALQLLLGSYGKLPQAQTVNSDSLQSVKLPAGLSSQILLQRPDIMEAEHALMAANANIGAARAAFFPSISLTSGISTASSDLSSLFNASSGMWNFIPKIEIPIFNAGRNQANLDIAEIRQQQSVVNYEQKIQNAFKEVADALALRQSLNDQISAQQRYLASLQITLQRARALYQHGAVSYLEVLDAERSLFATRQTLLDLNYARQVNEISLYTALGGG
modifications: three partial acyl chains attached to Cys1 (most likely triacylated at the N-terminal cysteine with N-acyl and S-diacylglycerol functions)
notes: CusC of Escherichia coli, gene for the full-length protein amplified from DH5alpha cells; residues 21-31 disordered in the crystal. numbers count on: the mature protein; Hexa-histidine tag introduced after the C-terminal residue; no cleavage is described; also called outer membrane factor (OMF) protein CusC; source: E. coli C43 (DE3), over-expressed, purified from membranes (nickel column, …)
  stoichiometry N: 3
